The record followed here is US20110158985A1 (published 2011).

Test [1] addresses T1, human FcRn (human).
T1 construct: also called recombinant human FcRn
Nature of the test: SPR (BIAcore), FcRn over immobilised IgG1, pH 6.0.
Protocol: (§1) IgG1 variants was monitored by surface plasmon resonance detection using a BIAcore 3000 instrument (Pharmacia Biosensor, Uppsala, Sweden). […] The protein concentrations ranged from 3-5 μg/ml in 10 mM sodium acetate, pH 5.0. The activation period was set for 7 minutes at a flow rate of 10 μl/min and the immobilization period was set to between 10 and 20 minutes at a flow rate of 10 μl/min. […] Human and murine FcRn were buffer exchanged against 50 mM PBS buffer pH 6.0 containing 0.05% Tween 20. Dilutions were made in the same buffer. All binding experiments were performed at 25° C. with concentrations ranging from 120 to 1 μg/ml at a flow rate of 5 to 10 μl/min; data were collected for 25 to 50 minutes and three 1-minute pulses of PBS buffer pH 7.2 were used to regenerate the surfaces. FcRn was also flowed over an uncoated cell and the sensorgrams from these blank runs subtracted from those obtained with IgG1-coupled chips. Runs were analyzed using the software BIAevaluation 3.1 (Pharmacia). Association constants (KAs) were determined from Scatchard analysis by measuring the concentration of free reactants and complex at equilibrium after correction for nonspecific binding.

For test [2], the target named is T2, murine FcRn (mouse, UniProt P01887 21-119).
T2 construct: also called mouse FcRn; muFcRn
T2 sequence: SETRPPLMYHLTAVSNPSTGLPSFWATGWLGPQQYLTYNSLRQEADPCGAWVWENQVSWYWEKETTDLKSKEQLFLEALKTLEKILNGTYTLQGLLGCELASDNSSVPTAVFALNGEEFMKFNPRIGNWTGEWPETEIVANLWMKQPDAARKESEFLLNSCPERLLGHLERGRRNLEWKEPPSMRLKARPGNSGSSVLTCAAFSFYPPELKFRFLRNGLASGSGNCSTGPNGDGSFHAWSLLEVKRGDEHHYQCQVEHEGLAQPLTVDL
T2 sequence (b2m): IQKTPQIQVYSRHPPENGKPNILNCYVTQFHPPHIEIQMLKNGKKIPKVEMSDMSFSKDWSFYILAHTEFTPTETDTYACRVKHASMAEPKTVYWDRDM
Kind of test: SPR (BIAcore), FcRn over immobilised IgG1, pH 6.0.
Protocol: as §1

The target in test [3] is T1, human FcRn. Nature of the test: SPR (BIAcore 3000), FcRn over immobilised IgG.
Protocol: (§2) Human and Cynomolgus Monkey FcRn were buffer-exchanged against 50 mM Phosphate Buffered Saline (PBS) pH 6.0 or 7.4 containing 0.05% Tween 20. Dilutions were made in the same buffers. […] FcRn was also flowed over an uncoated cell and the sensorgrams from these blank runs subtracted from those obtained with IgG-coupled chips. Runs were analyzed using the software BIAevaluation 3.1 (Pharmacia). Dissociation constants (Kds) were determined by fitting the binding isotherms to a one-site binding model using GraphPad Prism (GraphPad Software, Inc., CA). Errors were estimated as the mean standard deviation for at least 2 independent determinations.
For test [4], the target named is T3, Cynomolgus Monkey FcRn (Cynomolgus Monkey, UniProt Q8SPV9 24-290; Q8SPW0 21-119).
T3 construct: also called Cynomolgus FcRn
T3 sequence (Q8SPV9 24-290 limits assumed, chain 1 of 2): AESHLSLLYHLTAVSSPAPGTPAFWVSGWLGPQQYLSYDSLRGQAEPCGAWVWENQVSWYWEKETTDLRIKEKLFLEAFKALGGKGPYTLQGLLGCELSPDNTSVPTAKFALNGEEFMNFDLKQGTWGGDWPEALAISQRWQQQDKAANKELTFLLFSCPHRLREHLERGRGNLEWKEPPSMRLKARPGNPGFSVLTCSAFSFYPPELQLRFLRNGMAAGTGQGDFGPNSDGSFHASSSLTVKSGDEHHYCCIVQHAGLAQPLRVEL
T3 sequence (Q8SPW0 21-119 limits assumed, chain 2 of 2): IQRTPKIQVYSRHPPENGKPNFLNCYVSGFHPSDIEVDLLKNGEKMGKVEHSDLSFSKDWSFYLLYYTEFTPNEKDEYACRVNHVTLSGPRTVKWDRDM
Nature of the test: SPR (BIAcore 3000), FcRn over immobilised IgG.
Protocol: as §2

For test [5], the target named is T1, human FcRn. Nature of the test: SPR (BIAcore 3000), FcRn over immobilised IgG, pH 6.0, one-site fit.
Protocol: as §2
For test [6], the target named is T3, Cynomolgus Monkey FcRn. Described as above.
Protocol: as §2

T1 sequence (chain, as listed by the source limits assumed, chain 1 of 2): as the sequence (Q8SPV9 24-290 limits assumed, chain 1 of 2) above, with D39N, Q44E, S99G, G189S, N190S, M217L counted along it
T1 sequence (P61769 21-119 limits assumed, chain 2 of 2): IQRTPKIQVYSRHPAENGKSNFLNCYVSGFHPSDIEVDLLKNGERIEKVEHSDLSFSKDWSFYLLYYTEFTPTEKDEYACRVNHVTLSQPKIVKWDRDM

B1: human IgG1 MEDI-493 (palivizumab) I253A (antibody)
heavy: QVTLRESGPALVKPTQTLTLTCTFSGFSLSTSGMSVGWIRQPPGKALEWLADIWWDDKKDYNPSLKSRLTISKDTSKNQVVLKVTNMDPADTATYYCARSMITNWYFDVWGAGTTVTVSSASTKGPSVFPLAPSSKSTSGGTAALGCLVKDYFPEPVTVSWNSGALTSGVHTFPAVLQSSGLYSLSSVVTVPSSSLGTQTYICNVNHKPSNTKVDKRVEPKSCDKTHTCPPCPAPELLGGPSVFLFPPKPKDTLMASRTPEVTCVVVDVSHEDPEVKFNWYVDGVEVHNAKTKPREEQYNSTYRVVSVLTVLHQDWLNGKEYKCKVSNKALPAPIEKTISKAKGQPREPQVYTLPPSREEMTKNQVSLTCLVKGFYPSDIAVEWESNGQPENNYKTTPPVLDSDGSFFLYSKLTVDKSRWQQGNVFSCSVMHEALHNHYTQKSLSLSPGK
light: DIQMTQSPSTLSASVGDRVTITCKCQLSVGYMHWYQQKPGKAPKLLIYDTSKLASGVPSRFSGSGSGTEFTLTISSLQPDDFATYYCFQGSGYPFTFGGGTKLEIKRTVAAPSVFIFPPSDEQLKSGTASVVCLLNNFYPREAKVQWKVDNALQSGNSQESVTEQDSKDSTYSLSSTLTLSKADYEKHKVYACEVTHQGLSSPVTKSFNRGEC
notes: also called 1253A
Turning to B1, the binding result in test [1] and in test [2] was “no binding” throughout.

B2: MEDI-524-YTE (antibody, human IgG1, kappa)
heavy: QVTLRESGPALVKPTQTLTLTCTFSGFSLSTAGMSVGWIRQPPGKALEWLADIWWDDKKHYNPSLKDRLTISKDTSKNQVVLKVTNMDPADTATYYCARDMIFNFYFDVWGQGTTVTVSSASTKGPSVFPLAPSSKSTSGGTAALGCLVKDYFPEPVTVSWNSGALTSGVHTFPAVLQSSGLYSLSSVVTVPSSSLGTQTYICNVNHKPSNTKVDKRVEPKSCDKTHTCPPCPAPELLGGPSVFLFPPKPKDTLYITREPEVTCVVVDVSHEDPEVKFNWYVDGVEVHNAKTKPREEQYNSTYRVVSVLTVLHQDWLNGKEYKCKVSNKALPAPIEKTISKAKGQPREPQVYTLPPSREEMTKNQVSLTCLVKGFYPSDIAVEWESNGQPENNYKTTPPVLDSDGSFFLYSKLTVDKSRWQQGNVFSCSVMHEALHNHYTQKSLSLSPGK
light: DIQMTQSPSTLSASVGDRVTITCSASSRVGYMHWYQQKPGKAPKLLIYDTSKLASGVPSRFSGSGSGTEFTLTISSLQPDDFATYYCFQGSGYPFTFGGGTKVEIKRTVAAPSVFIFPPSDEQLKSGTASVVCLLNNFYPREAKVQWKVDNALQSGNSQESVTEQDSKDSTYSLSSTLTLSKADYEKHKVYACEVTHQGLSSPVTKSFNRGEC
In the case of B2, the “fold affinity increase over MEDI-524” value in test [3] is 11 fold; in test [4], 9 fold. The Kd was 210 nM in test [5] and 134 nM in test [6].
